Results on three molecules are retold here after patent US10696728B2, “Polypeptides, related nucleic acids, and their uses for cell modulation and treatments” (priority 2014, dated 2020).

For one experiment, the system named is CaMKii. Briefly: Western blot for phosphorylation of CaMKii (threonine 286) in HEK cells. Format: cell-based. To be noted: for level of p-CaMKii following RF stimulation: 36 hrs after transfection, FIG. 13. The method, then:
HEK cells were transiently transfected with TRPv1.D5. 36 hrs after transfection, TRPv1.D5 cells were exposed to RF. At time points indicated, cells were lysed and protein analyzed by western blot for phosphorylation of CaMKii on threonine^286 (p-CaMKii) using phospho-specific antibodies (top panel). Control cells (0 min) had very little detectable p-CaMKii.
(In general: A western blot detects proteins with antibodies after separation by electrophoresis.)

Another experiment has as its target T1, wild-type human TRPV1 (Homo sapiens, UniProt Q8NER1).
T1 construct: expressed in transfected cells; host or cells: chick embryo (neural crest cells, in ovo)
Briefly: Heart defects in chick embryos with wild-type human TRPV1 exposed to capsaicin. The note with it: data not shown. Format: in vivo, chicken.

The next experiment has as its system human ferritin. The experiment can be described thus: Subcellular distribution of ferritin (FTH1-mCherry) in HEK-293 cells, confocal imaging. The note with it: co-transfection with FTH1-mCherry in HEK-293, FIG. 9a/9b. Format: cell-based. The source says: TRPV1.D5 redistributes endogenous ferritin to membranes. To visualize subcellular distribution of ferritin, we fused human ferritin with mCherry (FTH1-mCherry) at the C-terminal. Expression of FTH1-mCherry in HEK-293 yielded normal cytoplasmic distribution.

The test system of the next experiment is ferritin. Briefly: Co-immunoprecipitation of ferritin with Flag-tagged channel. The format is binding, human.
For another experiment, the system named is HEK cells. The experiment can be described thus: GCaMP fluorescence (Ca2+ influx) in HEK cells at three levels of applied RF field. The format is cell-based. To be noted: for increase of green fluorescence emitted by GCAMP, all cells (both green and red) / increase of green fluorescence emitted by GCAMP, cells that visually became brighter: FIG. 11. On the procedure:
Expression of TRPv1.D5 in HEK cells: HEK cell expression was performed using transient transfection. Briefly, 1 μg of plasmid was mixed with Lipofectamine LTX with PLUS reagent (Life Technologies) following the manufacturer instructions. Expression was confirmed by standard western blot technique. Once expression was confirmed, pLVX.TRPv1.D5 was co-transfected with a plasmid containing GCaMP6 (addgene). GCaMP6 is a genetically encoded Calcium indicator. Its green fluorescence increases in the presence of increasing amounts of intracellular calcium. Green fluorescence was analyzed in HEK cells using MetaFluor Analyst Software (Molecular Devices) following manufacture instructions. Transfected cells were analyzed prior to RF exposure and during 10 minutes of RF exposure, as discussed below.
The intensity of red fluorescence protein (RFP) indicates the cells that expressed TRPV1.D5 with mCherry.
FIG. 11 quantifies the fluorescence intensity at three levels of applied electromagnetic fields. Red fluorescence emitted by mCherry (“Red Fluorescence”) increased by less than 6.5% at the end of experiments. Green fluorescence (GCaMP3) emitted by GCAMP in cells without TRPV1.D5 (“GCAMP-TRPV1 (green only, not red)”) increased by less than 6.9%.

The next experiment relates to HEK-293 cells. The experiment can be described thus: GCaMP fluorescence in mCherry+ HEK-293 cells in response to RF (190 MHz Helmholtz coil) or capsaicin. The format is cell-based. To be noted: for GCaMP response to capsaicin: 1 μM capsaicin; for Ca2+ permeability following RF: RF stimulation 190 MHz, FIG. 12. The source says:
A Helmholtz coil (190 MHz) was placed over a petri dish loaded with HEK-293 cells. RF power was supplied by a broadband (0-400 MHz) signal generator and amplified using a 10-W linear amplifier. We used GCaMP as an intracellular calcium indicator whose intensity is proportional to the amount of bound calcium. Using widefield fluorescent microscopy, we measured the change in GCaMP fluorescence in mCherry+ cells expressing TRPV1 and TRPV1.D5 in response to RF stimulation.

Experiment [1] deals with Neural Crest Cells (NCCs) in chicken embryos. Briefly: p-CaMKii immunostaining in neural crest cells of chick embryos after in ovo electroporation. Format: in vivo. The source says:
To determine if Ca^2+ flow could be modulated in vivo, we targeted wild-type TRPV1 or TRPV1.D5 expression to pre-migratory Neural Crest Cells (NCCs) in chicken embryos. NCC migration is dependent on control of Ca^2+ influx. (See, Hutson et al. 2003) NCCs transverse long distances through the embryo to enable proper heart development (e.g. outflow tracts). We utilized RF to increase Ca^2+ flow in NCCs while these cells were migrating out of the dorsal neural tube.
TRPV1.D5 was cloned into pLVX-EF1α-IRES-mCherry vectors. Plasmid DNA was then electroporated in ovo into the dorsal neural tube of chick embryos at Hamburger-Hamilton stage 9-11 to target premigratory NCCs. Twenty four hours later, expression of mCherry was confirmed and eggs were then subjected to no RF (FIG. 14a, control) or 10 minutes of RF (FIG. 14b and FIG. 14c). Immediately afterwards, embryos were removed and fixed in paraformaldehyde. These embryos were cryosectioned and stained for mCherry to identify TRPv1.D5+ cells and phosphorylated CaMKii (p-CaMKii) using an anti-Phospho-CaMKII antibody.

For a further experiment, the system named is chick embryos. The experiment can be described thus: Congenital heart defects in chick embryos with channel expression in neural crest cells. The format is in vivo, chicken.

Entries after “also recorded” stand apart in the source; their conditions may differ.

ferritin, sequence (P02794 whole entry): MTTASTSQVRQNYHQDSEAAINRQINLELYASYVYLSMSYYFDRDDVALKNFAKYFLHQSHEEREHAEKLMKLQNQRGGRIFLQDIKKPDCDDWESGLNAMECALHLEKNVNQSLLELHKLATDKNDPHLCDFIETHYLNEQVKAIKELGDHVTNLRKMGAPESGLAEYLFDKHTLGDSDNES
human ferritin, sequence (P02794 whole entry, the tested form may be a part): as the sequence (P02794 whole entry) above
T1 sequence (Q8NER1 whole entry): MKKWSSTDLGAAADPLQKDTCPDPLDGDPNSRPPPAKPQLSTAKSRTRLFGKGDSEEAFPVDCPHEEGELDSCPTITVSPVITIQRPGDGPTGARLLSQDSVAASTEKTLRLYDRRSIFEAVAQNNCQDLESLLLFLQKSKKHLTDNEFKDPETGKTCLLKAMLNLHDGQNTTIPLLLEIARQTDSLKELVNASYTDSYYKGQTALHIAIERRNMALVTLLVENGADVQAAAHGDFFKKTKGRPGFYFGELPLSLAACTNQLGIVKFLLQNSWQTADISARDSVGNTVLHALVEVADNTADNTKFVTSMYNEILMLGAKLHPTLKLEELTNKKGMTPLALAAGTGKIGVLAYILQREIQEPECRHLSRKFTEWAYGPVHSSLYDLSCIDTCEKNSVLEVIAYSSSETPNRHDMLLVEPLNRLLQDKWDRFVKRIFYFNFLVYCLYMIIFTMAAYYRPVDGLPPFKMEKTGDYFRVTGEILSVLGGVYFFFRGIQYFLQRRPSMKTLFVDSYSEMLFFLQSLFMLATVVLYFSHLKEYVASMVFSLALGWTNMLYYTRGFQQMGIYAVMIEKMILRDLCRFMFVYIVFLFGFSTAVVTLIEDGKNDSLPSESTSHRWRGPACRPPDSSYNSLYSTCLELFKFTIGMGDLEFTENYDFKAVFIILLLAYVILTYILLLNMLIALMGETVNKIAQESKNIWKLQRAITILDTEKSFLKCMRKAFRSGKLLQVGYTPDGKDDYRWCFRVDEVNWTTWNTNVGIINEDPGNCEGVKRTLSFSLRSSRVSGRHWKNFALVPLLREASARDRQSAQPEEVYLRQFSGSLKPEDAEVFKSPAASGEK

As to `COc1cc(CNC(=O)CCCC/C=C/C(C)C)ccc1O` [capsaicin, reference compound], the “phosphorylation of CaMKii” value with CaMKii (1 μm Capsaicin (Cap+), TRPv1.D5 transfected HEK cells) is “induced phosphorylation of CaMKii”. Besides, the “replication of the defects caused by TRPV1.D5+RF” value on wild-type human TRPV1 was “replicated”.

B1: TRPV1.D5: mouse TRPV1 linked to human domain 5 of kininogen 1 (SEQ ID NO:2), fusion protein expressed from pLVX vector (protein)
chain: MEKWASLDSDESEPPAQENSCPDPPDRDPNSKPPPAKPHIFATRSRTRLFGKGDSEEASPMDCPYEEGGLASCPIITVSSVVTLQRSVDGPTCLRQTSQDSVSTGVETPPRLYDRRSIFDAVAQSNCQELESLLSFLQKSKKRLTDSEFKDPETGKTCLLKAMLNLHNGQNDTIALLLDIARKTDSLKQFVNASYTDSYYKGQTALHIAIERRNMALVTLLVENGADVQAAANGDFFKKTKGRPGFYFGELPLSLAACTNQLAIVKFLLQNSWQPADISARDSVGNTVLHALVEVADNTADNTKFVTNMYNEILILGAKLHPTLKLEELTNKKGLTPLALAASSGKIGVLAYILQREIHEPECRHLSRKFTEWAYGPVHSSLYDLSCIDTCEKNSVLEVIAYSSSETPNRHDMLLVEPLNRLLQDKWDRFVKRIFYFNFFVYCLYMIIFTTAAYYRPVEGLPPYKLNNTVGDYFRVTGEILSVSGGVYFFFRGIQYFLQRRPSLKSLFVDSYSEILFFVQSLFMLVSVVLYFSHRKEYVASMVFSLAMGWTNMLYYTRGFQQMGIYAVMIEKMILRDLCRFMFVYLVFLFGFSTAVVTLIEDGKNNSLPVESPPHKCRGSACRPGNSYNSLYSTCLELFKFTIGMGDLEFTENYDFKAVFIILLLAYVILTYILLLNMLIALMGETVNKIAQESKNIWKLQRAITILDTEKSFLKCMRKAFRSGKLLQVGFTPDGKDDFRWCFRVDEVNWTTWNTNVGIINEDPGNCEGVKRTLSFSLRSGRVSGRNWKNFALVPLLRDASTRDRHSTQPEEVQLKHYTGSLKPEDAEVFKDSMAPGEKCSRVSPPHTSMAPAQDEERDSGKEQGHTRRHDWGHEKQRKHNLGHGHKHERDQGHGHQRGHGLGHGHEQQHGLGHGHKFKLDDDLEHQGGHVLDHGHKHKHGHGHGKHKNKGKKNGKHNGWKTEHLASL
modifications: Flag tag; mouse/human chimera TRPv1.D5
As to B1, the “subcellular distribution of FTH1-mCherry (ferritin)” value in the experiment on human ferritin is “redistributed FTH1-mCherry to cell membranes”. For the same molecule, the “co-immunoprecipitation of Ferritin-mCherry” value in the experiment on ferritin (Flag-labelled channel, FIG. 9e, listed as Flag-TRPV1.D5) is recorded as “co-immunoprecipitates”. Besides, in the experiment on ferritin (data not shown), the “pull-down of ferritin-mCherry and endogenous ferritin by immunoprecipitation” value is “successfully pulled down both ferritin-mCherry and endogenous ferritin”. Further, in the experiment with HEK cells (high RF (132 G)), the “increase of green fluorescence emitted by GCAMP, all cells (both green and red)” value (“increase … (both green and red)” for short) was found to be 22.2%; the “increase of green fluorescence emitted by GCAMP, cells that visually became brighter” value (shortened to “increase … cells that visually became brighter”) is 151.3%. In addition, in the experiment with HEK cells (low RF (62 G)), the “increase … (both green and red)” value turned out to be 9.0%; the “increase … cells that visually became brighter” value is recorded as 48.3%. Further, the “GCAMP3 intensity on application of RF/EM fields” value in the experiment on HEK cells (with vs without RF, FIG. 10) is “increased in the presence of RF; also recorded: increased GCAMP3 intensity”. In addition, in the experiment on HEK-293 cells, the “GCaMP response to capsaicin” value is “responded equally well” and the “Ca2+ permeability following RF” value is recorded as “induced a transient increase in Ca^2+ permeability; also recorded: increases Ca^2+ ion modulation”. Also, in the experiment with CaMKii (TRPv1.D5+ HEK cells), the “time of peak p-CaMKii level following RF stimulation” value came out at 10 min and the “level of p-CaMKii following RF stimulation” value is listed as “induces p-CaMKii”. Besides, the “level of p-CaMKii following RF stimulation” value with CaMKii (TRPv1.D5+ HEK cells, listed as TRPv1.D5) is given as “increases”. The “p-CaMKii in neural crest cells” value in experiment [1] (10 minutes of RF, FIG. 14b/14c) is “clear co-localization of the mutant channel and p-CaMKii”. In experiment [1] (no RF (control animals), FIG. 14a), the “p-CaMKii in neural crest cells” value is listed as “did not observe detectable levels of p-CaMKii”. Further, the “heart defects on RF activation in cardiac neural crest cells” value with chick embryos (RF for 10 minutes, FIG. 15) was “results in heart defects”. The “embryos that developed congenital heart defects (VSD, double outlet right ventricle, transposition of great vessels)” value in the experiment with chick embryos (RF-treated, day 10 post experiments) is recorded as about 60%. Further, the “development of heart defects” value with chick embryos (non-RF treated) was “nor the non-RF treated TRPV1.D5 embryos developed any defects”.

B2: TRPV1: Transient Receptor Potential channel Vanilloid 1, full length, amplified from mouse spinal cord cDNA; wild-type comparison channel without D5 (protein)
chain: MEKWASLDSDESEPPAQENSCPDPPDRDPNSKPPPAKPHIFATRSRTRLFGKGDSEEASPMDCPYEEGGLASCPIITVSSVVTLQRSVDGPTCLRQTSQDSVSTGVETPPRLYDRRSIFDAVAQSNCQELESLLSFLQKSKKRLTDSEFKDPETGKTCLLKAMLNLHNGQNDTIALLLDIARKTDSLKQFVNASYTDSYYKGQTALHIAIERRNMALVTLLVENGADVQAAANGDFFKKTKGRPGFYFGELPLSLAACTNQLAIVKFLLQNSWQPADISARDSVGNTVLHALVEVADNTADNTKFVTNMYNEILILGAKLHPTLKLEELTNKKGLTPLALAASSGKIGVLAYILQREIHEPECRHLSRKFTEWAYGPVHSSLYDLSCIDTCEKNSVLEVIAYSSSETPNRHDMLLVEPLNRLLQDKWDRFVKRIFYFNFFVYCLYMIIFTTAAYYRPVEGLPPYKLNNTVGDYFRVTGEILSVSGGVYFFFRGIQYFLQRRPSLKSLFVDSYSEILFFVQSLFMLVSVVLYFSHRKEYVASMVFSLAMGWTNMLYYTRGFQQMGIYAVMIEKMILRDLCRFMFVYLVFLFGFSTAVVTLIEDGKNNSLPVESPPHKCRGSACRPGNSYNSLYSTCLELFKFTIGMGDLEFTENYDFKAVFIILLLAYVILTYILLLNMLIALMGETVNKIAQESKNIWKLQRAITILDTEKSFLKCMRKAFRSGKLLQVGFTPDGKDDFRWCFRVDEVNWTTWNTNVGIINEDPGNCEGVKRTLSFSLRSGRVSGRNWKNFALVPLLRDASTRDRHSTQPEEVQLKHYTGSLKPEDAEVFKDSMAPGEK
modifications: Flag tag; Mouse TRPV1
Consider B2, for which, in the experiment with human ferritin, the “subcellular distribution of FTH1-mCherry (ferritin)” value was “cytoplasmic distribution was not altered”. In the experiment on HEK cells (high RF (132 G)), the “increase … (both green and red)” value is reported as 22.2%; the “increase … cells that visually became brighter” value came out at 151.3%. Also, in the experiment on HEK cells (low RF (62 G)), the “increase … (both green and red)” value amounted to 9.0%; the “increase … cells that visually became brighter” value is reported as 48.3%. For the same molecule, in the experiment on HEK-293 cells, the “GCaMP response to capsaicin” value is “responded equally well” and the “Ca2+ permeability following RF” value is reported as “only TRPV1.D5 induced a transient increase”. Moreover, the “development of heart defects” value with chick embryos (with or without RF) was “Neither the TRPV1 embryos (with or without RF) nor the non-RF treated TRPV1.D5 embryos developed any defects”.
